Reference: patent publication US9206432B2, “Sulfonylurea-responsive repressor proteins” (priority 2008, dated 2015)

B1: L1-9: SU-responsive TetR(B) variant, library L1 hit (protein)
chain: MGSRLDKSKVINSALELLNEVGIEGLTTRKLAQKLGVEQPTLYWHVKNKRALLDALAIEMLDRHATHFCPLEGESWQDFLRNNAKSMRCALLSHRDGAKVCLGTGFTEKQYETAENSLAFLCQQGFSLENALYAMQAVCIFTLGCVLLDQELQVAKEERETPTTDSMPPLLRQALELKDHQGAEPAFLFGLELIICGLEKQLKCESGS
modifications: Sulfonylurea responsive repressor L1-09
B2: L1-28: SU-responsive TetR(B) variant, library L1 hit (protein)
chain: MGSRLDKSKVINSALELLNEVGIEGLTTRKLAQKLGVEQPTLYWHVKNKRALLDALAIEMLDRHATHFCPLEGESWQDFLRNNAKSMRCALLSHRDGAKVWLGTAWTEKQYETPENVLAFLCQQGFSLENALYASRAVVTFTLGCVLTDQEKQVAKEERETPTTDSMPPLLRQAWELLDHQGAEPAFLFGLELIICGLEKQLKCESGS
modifications: Sulfonylurea responsive repressor L1-28
B3: L1-38: SU-responsive TetR(B) variant, library L1 hit (protein)
chain: MGSRLDKSKVINSALELLNEVGIEGLTTRKLAQKLGVEQPTLYWHVKNKRALLDALAIEMADRHHTHFCPLEGESWQDFLRNNAKSMRCALLSHRDGAKVWLGTAWTEKQYETTENMLAFLCQQGFSLENALYAWRAVTMFTLGCVLRDQEWQVAKEERETPTTDSMPPLLRQALELGDHQGAEPAFLFGLELIICGLEKQLKCESGS
modifications: Sulfonylurea responsive repressor L1-38
B4: L1-22: SU-responsive TetR(B) variant, library L1 hit, SEQ ID NO: 7 (protein)
chain: MGSRLDKSKVINSALELLNEVGIEGLTTRKLAQKLGVEQPTLYWHVKNKRALLDALAIEMMDRHHTHFCPLEGESWQDFLRNTAKSYRCALLSHRDGAKVCLGTAITEKQYETKENNLAFLCQQGFSLENALYARQAVRVFTLGCVLFDQEMQVAKEERETPTTDSMPPLLRQASELLDHQGAEPAFLFGLELIICGLEKQLKSESGS
modifications: Sulfornylurea responsive repressor L1-22
B5: L1-31: SU-responsive TetR(B) variant, library L1 hit (protein)
chain: MGSRLDKSKVINSALELLNEVGIEGLTTRKLAQKLGVEQPTLYWHVKNKRALLDALAIEMLDRHATHFCPLEGESWQDFLRNNAKSMRCALLSHRDGAKVMLGTRATEKQYETVENRLAFLCQQGFSLENALYAVRAVHWFTLGCVLIDQEMQVAKEERETPTTDSMPPLLRQAYELYDHQGAEPAFLFGLELIICGLEKQLKCESGS
modifications: Sulfonylurea responsive repressor L1-31
B6: L1-24: SU-responsive TetR(B) variant, library L1 hit (protein)
chain: MGSRLDKSKVINSALELLNEVGIEGLTTRKLAQKLGVEQPTLYWHVKNKRALLDALAIEMLDRHNTHFCPLEGESWQDFLRNSAKSMRCALLSHRDGAKVLLGTAVTEKQYETTENSLAFLCQQGFSLENALYAIRAVRTFTLGCVLVDQERQVAKEERETPTTDSMPPLLRQAKELLDHQGAEPAFLFGLELIICGLEKQLKCESGS
modifications: Sulfonylurea responsive repressor L1-24
B7: L1-2: SU-responsive TetR(B) ligand binding domain variant, library L1 hit, SEQ ID NO: 3 (protein)
chain: MGSRLDKSKVINSALELLNEVGIEGLTTRKLAQKLGVEQPTLYWHVKNKRALLDALAIEMLDRHATHFCPLEGESWQDFLRNNAKSFRCALLSHRDGAKVCLGTAVTEKQYETMENILAFLCQQGFSLENALYARRAVIAFTLGCVLWDQEYQVAKEERETPTTDSMPPLLRQARELIDHQGAEPAFLFGLELIICGLEKQLKCESGS
modifications: Sulfonylurea responsive repressor L1-02
B8: L1-44: SU-responsive TetR(B) variant, library L1 hit, SEQ ID NO: 13 (protein)
chain: MGSRLDKSKVINSALELLNEVGIEGLTTRKLAQKLGVEQPTLYWHVKNKRALLDALAIEMLDRHATHFCPLEGESWQDFLRNNAKSYRCALLSHRDGAKVYLGTAVTEKQYETAENQLAFLCQQGFSLENALYAVKAVAGFTLGCVLWDQESQVAKEERETPTTASMPPLLRQAVELADHQGAEPAFLFGLELIICGLEKQLKCESGS
modifications: Sulfonylurea responsive repressor L1-44
B9: L1-29: SU-responsive TetR(B) variant, library L1 hit, SEQ ID NO: 10 (protein)
chain: MGSRLDKSKVINSALELLNEVGIEGLTTRKLAQKLGVEQPTLYWHVKNKRALLDALAIEMMDRHQTHFCPLEGESWQDFLRNTAKSMRCALLSHRDGAKVWLGTRWTEKQYETPENMLAFLCQQGFSLENALYAWSAVCNFTLGCVLSDQERQVAKEERETPTTDSMPPLLRQAWELSDHQGAEPAFLFGLELIICGLEKQLKCESGS
modifications: Sulfonylurea responsive repressor L1-29

tested on: lacZ under control of the tetA promoter (PtetA) in E. coli KM3; type: cell-based; conditions: Table 4; chlorimuron 20 ppm; 48 hrs at 30° C.

Molecule	relative β-galactosidase activity, inducer Ci
B1	9.8
B2	14.6
B3	15.3
B4	10.4
B5	1.1
B6	22.1
B7	13.6
B8	6.7
B9	20.9

same assay, conditions: Table 4; chlorsulfuron 20 ppm; 48 hrs at 30° C.

Molecule	relative β-galactosidase activity, inducer Cs
B1	23.6
B2	5.8
B3	14.0
B4	0.2
B5	1.4
B6	3.3
B7	4.1
B8	12.0
B9	15.8

same assay, conditions: Table 4; ethametsulfuron 20 ppm; 48 hrs at 30° C.

Molecule	relative β-galactosidase activity, inducer Es
B1	11.8
B2	0.8
B3	14.8
B4	0.3
B5	13.7
B6	0.2
B7	5.8
B8	2.4
B9	1.7

same assay, conditions: Table 4; metsulfuron 20 ppm; 48 hrs at 30° C.

Molecule	relative β-galactosidase activity, inducer Ms
B1	1.2
B2	18.8
B3	14.7
B4	0.1
B5	0.5
B6	0.4
B7	1.9
B8	2.9
B9	13.5

same assay, conditions: Table 4; nicosulfuron 20 ppm; 48 hrs at 30° C.

Molecule	relative β-galactosidase activity, inducer Ns
B1	0.3
B2	0.1
B3	8.7
B4	0.2
B5	0.5
B6	0.3
B7	1.3
B8	0.4
B9	0.1

same assay, conditions: Table 4; rimsulfuron 20 ppm; 48 hrs at 30° C.

Molecule	relative β-galactosidase activity, inducer Rs
B1	0.4
B2	0.2
B3	9.5
B4	0.1
B5	0.4
B6	0.3
B7	1.3
B8	0.3
B9	0.1

same assay, conditions: Table 4; sulfometuron 20 ppm; 48 hrs at 30° C.

Molecule	relative β-galactosidase activity, inducer Sm
B1	0.6
B2	1.1
B3	18.3
B4	17.2
B5	0.9
B6	3.1
B7	4.7
B8	0.4
B9	2.7

same assay, conditions: Table 4; thifensulfuron 20 ppm; 48 hrs at 30° C.

Molecule	relative β-galactosidase activity, inducer Ts
B1	1.1
B2	0.1
B3	16.7
B4	0.0
B5	0.9
B6	0.3
B7	1.6
B8	1.9
B9	0.0

same assay, conditions: Table 4; tribenuron 20 ppm; 48 hrs at 30° C.

Molecule	relative β-galactosidase activity, inducer Tb
B1	0.4
B2	0.3
B3	15.8
B4	0.3
B5	0.1
B6	1.6
B7	1.7
B8	0.4
B9	0.3

same assay, conditions: Table 8; library L2 parents and hits

Molecule	inducer preference
B1	4, 9 (weak)
B4	3
B8	9 (weak)
B9	9 (weak)

same assay, conditions: Table 10; 48 hours at 30° C.

Molecule	relative β-galactosidase activity, No inducer
B1	0.9
B4	0.2
B8	0.6
B9	0.1

same assay, conditions: Table 10; ethametsulfuron 2 ppm; 48 hours at 30° C.

Molecule	relative β-galactosidase activity, inducer Es
B1	14.8

same assay, conditions: first round hits, 20 ppm inducer (Table 4)

Molecule	activity on sulfonylurea inducers
B1	strong activity on both ethametsulfuron and chlorsulfuron
B4	strong sulfometuron activity
B8	moderate activity on metsulfuron, ethametsulfuron and chlorsulfuron
B9	moderate metsulfuron activity

same assay, conditions: library L2 retest, inducers at 2 ppm

Molecule	induction response and background
B1	sensitivity to 2 ppm Es
